# From paper PMC5778602 (Nucleic Acids Research, 2017)
# T1: WD40 domain of CstF-50 (human, UniProt Q05048 80-431)
# T1 sequence: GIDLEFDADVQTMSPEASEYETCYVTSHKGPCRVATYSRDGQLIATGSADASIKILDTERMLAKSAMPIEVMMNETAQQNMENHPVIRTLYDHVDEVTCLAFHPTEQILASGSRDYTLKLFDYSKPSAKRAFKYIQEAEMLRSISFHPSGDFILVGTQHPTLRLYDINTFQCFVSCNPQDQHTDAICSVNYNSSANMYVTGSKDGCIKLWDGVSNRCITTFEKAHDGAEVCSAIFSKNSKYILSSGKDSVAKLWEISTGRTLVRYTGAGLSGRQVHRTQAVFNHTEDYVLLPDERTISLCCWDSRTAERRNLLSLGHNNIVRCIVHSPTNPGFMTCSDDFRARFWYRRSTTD
# B1: full length GST-CstF-50 fusion protein (natural protein, human, UniProt Q05048 1-431, looked up)
# chain: MYRTKVGLKDRQQLYKLIISQLLYDGYISIANGLINEIKPQSVCAPSEQLLHLIKLGMENDDTAVQYAIGRSDTVAPGTGIDLEFDADVQTMSPEASEYETCYVTSHKGPCRVATYSRDGQLIATGSADASIKILDTERMLAKSAMPIEVMMNETAQQNMENHPVIRTLYDHVDEVTCLAFHPTEQILASGSRDYTLKLFDYSKPSAKRAFKYIQEAEMLRSISFHPSGDFILVGTQHPTLRLYDINTFQCFVSCNPQDQHTDAICSVNYNSSANMYVTGSKDGCIKLWDGVSNRCITTFEKAHDGAEVCSAIFSKNSKYILSSGKDSVAKLWEISTGRTLVRYTGAGLSGRQVHRTQAVFNHTEDYVLLPDERTISLCCWDSRTAERRNLLSLGHNNIVRCIVHSPTNPGFMTCSDDFRARFWYRRSTTD
# B2: CstF-50 (full length, affinity tag removed) (natural protein, human, UniProt Q05048 1-431, looked up)
# chain: MYRTKVGLKDRQQLYKLIISQLLYDGYISIANGLINEIKPQSVCAPSEQLLHLIKLGMENDDTAVQYAIGRSDTVAPGTGIDLEFDADVQTMSPEASEYETCYVTSHKGPCRVATYSRDGQLIATGSADASIKILDTERMLAKSAMPIEVMMNETAQQNMENHPVIRTLYDHVDEVTCLAFHPTEQILASGSRDYTLKLFDYSKPSAKRAFKYIQEAEMLRSISFHPSGDFILVGTQHPTLRLYDINTFQCFVSCNPQDQHTDAICSVNYNSSANMYVTGSKDGCIKLWDGVSNRCITTFEKAHDGAEVCSAIFSKNSKYILSSGKDSVAKLWEISTGRTLVRYTGAGLSGRQVHRTQAVFNHTEDYVLLPDERTISLCCWDSRTAERRNLLSLGHNNIVRCIVHSPTNPGFMTCSDDFRARFWYRRSTTD
# B3: CstF-77ΔN (domain or fragment, human, UniProt Q12996 241-717, looked up)
# chain: NTPQEAQQVDMWKKYIQWEKSNPLRTEDQTLITKRVMFAYEQCLLVLGHHPDIWYEAAQYLEQSSKLLAEKGDMNNAKLFSDEAANIYERAISTLLKKNMLLYFAYADYEESRMKYEKVHSIYNRLLAIEDIDPTLVYIQYMKFARRAEGIKSGRMIFKKAREDTRTRHHVYVTAALMEYYCSKDKSVAFKIFELGLKKYGDIPEYVLAYIDYLSHLNEDNNTRVLFERVLTSGSLPPEKSGEIWARFLAFESNIGDLASILKVEKRRFTAFKEEYEGKETALLVDRYKFMDLYPCSASELKALGYKDVSRAKLAAIIPDPVVAPSIVPVLKDEVDRKPEYPKPDTQQMIPFQPRHLAPPGLHPVPGGVFPVPPAAVVLMKLLPPPICFQGPFVQVDELMEIFRRCKIPNTVEEAVRIITGGAPELAVEGNGPVESNAVLTKAVKRPNEDSDEDEEKGAVVPPVHDIYRARQQKRIR
# B4: CstF-77 (residues 241–600) (domain or fragment, human, UniProt Q12996 241-600, looked up)
# chain: NTPQEAQQVDMWKKYIQWEKSNPLRTEDQTLITKRVMFAYEQCLLVLGHHPDIWYEAAQYLEQSSKLLAEKGDMNNAKLFSDEAANIYERAISTLLKKNMLLYFAYADYEESRMKYEKVHSIYNRLLAIEDIDPTLVYIQYMKFARRAEGIKSGRMIFKKAREDTRTRHHVYVTAALMEYYCSKDKSVAFKIFELGLKKYGDIPEYVLAYIDYLSHLNEDNNTRVLFERVLTSGSLPPEKSGEIWARFLAFESNIGDLASILKVEKRRFTAFKEEYEGKETALLVDRYKFMDLYPCSASELKALGYKDVSRAKLAAIIPDPVVAPSIVPVLKDEVDRKPEYPKPDTQQMIPFQPRHLAPP
# B5: CstF-77 (residues 241–610) (domain or fragment, human, UniProt Q12996 241-610, looked up)
# chain: NTPQEAQQVDMWKKYIQWEKSNPLRTEDQTLITKRVMFAYEQCLLVLGHHPDIWYEAAQYLEQSSKLLAEKGDMNNAKLFSDEAANIYERAISTLLKKNMLLYFAYADYEESRMKYEKVHSIYNRLLAIEDIDPTLVYIQYMKFARRAEGIKSGRMIFKKAREDTRTRHHVYVTAALMEYYCSKDKSVAFKIFELGLKKYGDIPEYVLAYIDYLSHLNEDNNTRVLFERVLTSGSLPPEKSGEIWARFLAFESNIGDLASILKVEKRRFTAFKEEYEGKETALLVDRYKFMDLYPCSASELKALGYKDVSRAKLAAIIPDPVVAPSIVPVLKDEVDRKPEYPKPDTQQMIPFQPRHLAPPGLHPVPGGVF
# Tests used:
# [1] = target: B3; assay: pull-down
# [2] = target: B3; assay: SEC
# [3] = target: the molecule itself; assay: SEC-MALS
# [4] = target: B1; assay: pull-down
# [5] = target: T1, WD40 domain of CstF-50; assay: ITC
binder,measurement,setting,value
B1,binding result,[1],binds
B2,binding result,[2],binds
B3,stoichiometry N,[3],2
B4,binding result,[4],binds
"YPKPDTQQMIPFQPRHLAPP (peptide, UniProt Q12996 581-600, looked up) [CstF-77 peptide (residues 581–600)]",Kd,[5],~200 nM
same,stoichiometry N,[5],1
B5,binding result,[4],binds
